Source: article PMC7015052, “Transferrin plays a central role in coagulation balance by interacting with clotting factors” (Cell Research, 2019)

Columns and labels:
apo-transferrin [1] = target: T1, apo-transferrin (human, UniProt P02787 20-698); assay: SPR; CM5 chip coupled with 100 RU of transferrin; binding molar ratio from the saturation RU of the flowing phase and the RU of the immobilised phase; settings: for stoichiometry N: both partners purified
T1 construct: transferrin (serotransferrin), human, iron-free state; Several paragraphs and legends say only 'transferrin' where the text says apo-transferrin for the same panels; rows told of 'transferrin' alone are tied to this molecule; also called Tf; TRF; source: bought: Sigma (purity greater than 98%)

apo-transferrin [2] = target: T1, apo-transferrin; assay: SPR; BIAcore 2000; apo-transferrin or holo-transferrin immobilised on a CM5 chip (~2000 RU); serial concentrations of thrombin, FXIIa, fibrinogen, AT, prothrombin or FXII in Tris–HCl buffer (20 mM, pH 7.4) at 10 μL/min
human α-thrombin (human) = human α-thrombin (human) (UniProt P00734)
apo-transferrin [3] = target: T1, apo-transferrin; assay: SPR; settings: plateau of the association phase, read off a plot
apo-transferrin [4] = target: T1, apo-transferrin; assay: SPR; transferrin with synthetic peptides (TH16, FX18, RCL19 and their scrambled controls); settings: both partners purified

Molecule: human α-thrombin (from UniProt P00734 364-622) (enzyme)
- stoichiometry N (transferrin per thrombin (molar ratio)) (apo-transferrin [1]): 1
- Kd (apo-transferrin [2]): 7.7 nM

Molecule: apo-transferrin (from UniProt P02787 20-698) (natural protein)
- enhancement of the enzymatic activity of thrombin (chromogenic substrate) by transferrin at 0.2, 1 and 5 μM (human α-thrombin (human)): 1.8 fold
- increase of fibrinopeptide A released from fibrinogen by thrombin after 30 min with transferrin at 0.2, 1 and 5 μM (RP-HPLC) (human α-thrombin (human)): 1.2 fold
- increase of fibrinopeptide B released from fibrinogen by thrombin after 30 min with transferrin at 0.2, 1 and 5 μM (RP-HPLC) (human α-thrombin (human)): 4.2 fold

Molecule: wild-type thrombin (from UniProt P00734) R117A; R122A
- response (apo-transferrin [3]; 25 nM trace, parent: est. 9): 2.5 RU
- response (apo-transferrin [3]; 50 nM trace, parent: est. 14): 5.5 RU

Molecule: FXII (natural protein)
- Kd (apo-transferrin [2]): 40 nM
- koff (apo-transferrin [2]): 0.0012 s⁻¹
- kon (apo-transferrin [2]): 30000 M⁻¹ s⁻¹

B1: fibrinogen (natural protein)
chain 1: ADSGEGDFLAEGGGVRGPRVVERHQSACKDSDWPFCSDEDWNYKCPSGCRMKGLIDEVNQDFTNRINKLKNSLFEYQKNNKDSHSLTTNIMEILRGDFSSANNRDNTYNRVSEDLRSRIEVLKRKVIEKVQHIQLLQKNVRAQLVDMKRLEVDIDIKIRSCRGSCSRALAREVDLKDYEDQQKQLEQVIAKDLLPSRDRQHLPLIKMKPVPDLVPGNFKSQLQKVPPEWKALTDMPQMRMELERPGGNEITRGGSTSYGTGSETESPRNPSSAGSWNSGSSGPGSTGNRNPGSSGTGGTATWKPGSSGPGSTGSWNSGSSGTGSTGNQNPGSPRPGSTGTWNPGSSERGSAGHWTSESSVSGSTGQWHSESGSFRPDSPGSGNARPNNPDWGTFEEVSGNVSPGTRREYHTEKLVTSKGDKELRTGKEKVTSGSTTTTRRSCSKTVTKTVIGPDGHKEVTKEVVTSEDGSDCPEAMDLGTLSGIGTLDGFRHRHPDEAAFFDTASTGKTFPGFFSPMLGEFVSETESRGSESGIFTNTKESSSHHPGIAEFPSRGKSSSYSKQFTSSTSYNRGDSTFESKSYKMADEAGSEADHEGTHSTKRGHAKSRPVRGIHTSPLGKPSLSP
chain 2: QGVNDNEEGFFSARGHRPLDKKREEAPSLRPAPPPISGGGYRARPAKAAATQKKVERKAPDAGGCLHADPDLGVLCPTGCQLQEALLQQERPIRNSVDELNNNVEAVSQTSSSSFQYMYLLKDLWQKRQKQVKDNENVVNEYSSELEKHQLYIDETVNSNIPTNLRVLRSILENLRSKIQKLESDVSAQMEYCRTPCTVSCNIPVVSGKECEEIIRKGGETSEMYLIQPDSSVKPYRVYCDMNTENGGWTVIQNRQDGSVDFGRKWDPYKQGFGNVATNTDGKNYCGLPGEYWLGNDKISQLTRMGPTELLIEMEDWKGDKVKAHYGGFTVQNEANKYQISVNKYRGTAGNALMDGASQLMGENRTMTIHNGMFFSTYDRDNDGWLTSDPRKQCSKEDGGGWWYNRCHAANPNGRYYWGGQYTWDMAKHGTDDGVVWMNWKGSWYSMRKMSMKIRPFFPQQ
chain 3: YVATRDNCCILDERFGSYCPTTCGIADFLSTYQTKVDKDLQSLEDILHQVENKTSEVKQLIKAIQLTYNPDESSKPNMIDAATLKSRKMLEEIMKYEASILTHDSSIRYLQEIYNSNNQKIVNLKEKVAQLEAQCQEPCKDTVQIHDITGKDCQDIANKGAKQSGLYFIKPLKANQQFLVYCEIDGSGNGWTVFQKRLDGSVDFKKNWIQYKEGFGHLSPTGTTEFWLGNEKIHLISTQSAIPYALRVELEDWNGRTSTADYAMFKVGPEADKYRLTYAYFAGGDAGDAFDGFDFGDDPSDKFFTSHNGMQFSTWDNDNDKFEGNCAEQDGSGWWMNKCHAGHLNGVYYQGGTYSKASTPNGYDNGIIWATWKTRWYSMKKTTMKIIPFNRLTIGEGQQHHLGGAKQAGDV
notes: fibrinogen alpha chain; fibrinogen beta chain; fibrinogen gamma chain; the SPR and native gel methods say only 'fibrinogen'; also called factor I; source: bought: Cayman (16088); copies: + +
- stoichiometry N (apo-transferrin [1]): 4 apo-transferrin per fibrinogen (molar ratio)

Molecule: RRNHSCEPCQTLAVRSYR (source: synthetic peptide) [FX18]
- Kd (apo-transferrin [4]): 143 nM
- koff (apo-transferrin [4]): 0.0004 s⁻¹
- kon (apo-transferrin [4]): 2800 M⁻¹ s⁻¹

B2: RCL19 (peptide)
peptide: EAAASTAVVIAGRSLNPNR
notes: from the reactive center loop (RCL) of antithrombin; also called synthetic peptide from the RCL of AT; source: synthetic peptide
- Kd (apo-transferrin [4]): 556 nM
- koff (apo-transferrin [4]): 0.001 s⁻¹
- kon (apo-transferrin [4]): 1800 M⁻¹ s⁻¹

B3: human α-FXIIa (enzyme)
chain 1: IPPWEAPKEHKYKAEEHTVVLTVTGEPCHFPFQYHRQLYHKCTHKGRPGPQPWCATTPNFDQDQRWGYCLEPKKVKDHCSKHSPCQKGGTCVNMPSGPHCLCPQHLTGNHCQKEKCFEPQLLRFFHKNEIWYRTEQAAVARCQCKGPDAHCQRLASQACRTNPCLHGGRCLEVEGHRLCHCPVGYTGAFCDVDTKASCYDGRGLSYRGLARTTLSGAPCQPWASEATYRNVTAEQARNWGLGGHAFCRNPDNDIRPWCFVLNRDRLSWEYCDLAQCQTPTQAAPPTPVSPRLHVPLMPAQPAPPKPQPTTRTPPQSQTPGALPAKREQPPSLTRNGPLSCGQRLRKSLSSMTR
chain 2: VVGGLVALRGAHPYIAALYWGHSFCAGSLIAPCWVLTAAHCLQDRPAPEDLTVVLGQERRNHSCEPCQTLAVRSYRLHEAFSPVSYQHDLALLRLQEDADGSCALLSPYVQPVCLPSGAARPSETTLCQVAGWGHQFEGAEEYASFLQEAQVPFLSLERCSAPDVHGSSILPGMLCAGFLEGGTDACQGDSGGPLVCEDQAAERRLTLQGIISWGSGCGDRNKPGVYTDVAYYLAWIREHTVS
notes: factor XIIa heavy chain, cut product of human factor XII; factor XIIa light chain (protease domain), cut product of human factor XII; also called factor XIIa; source: bought: Enzyme Research Laboratories (HFXIIa 1212a)
- stoichiometry N (apo-transferrin [1]): 1 transferrin per FXIIa (molar ratio)
- Kd (apo-transferrin [2]; both partners purified): 13.9 nM
- koff (apo-transferrin [2]; both partners purified): 0.0025 s⁻¹
- kon (apo-transferrin [2]; both partners purified): 180000 M⁻¹ s⁻¹

Molecule: RIGKHSRTRYERNIEK (source: synthetic peptide) [TH16]
- Kd (apo-transferrin [4]): 97 nM
- koff (apo-transferrin [4]): 0.0003 s⁻¹
- kon (apo-transferrin [4]): 3100 M⁻¹ s⁻¹
